Results reported in patent publication CN114075280A (DONGGUAN PENGZHI BIOTECHNOLOGY CO LTD, dated 2022).

Target: NGAL抗原 (中性粒细胞明胶酶相关载脂蛋白, Neutrophil gelatinase-associated lipocalin) (UniProt P80188 21-198)
Assay: BLI, antibody captured on AMC sensor, NGAL in solution

Chain of NGAL抗原 (中性粒细胞明胶酶相关载脂蛋白, Neutrophil gelatinase-associated lipocalin) (P80188 21-198 limits assumed): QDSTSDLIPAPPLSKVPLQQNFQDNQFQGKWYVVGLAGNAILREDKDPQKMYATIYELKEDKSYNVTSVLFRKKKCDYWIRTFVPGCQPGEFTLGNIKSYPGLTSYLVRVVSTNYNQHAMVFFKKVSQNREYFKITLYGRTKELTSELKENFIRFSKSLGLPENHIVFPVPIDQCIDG

B1: 实施例1的抗NGAL单克隆抗体(WT) (antibody, V domains shown)
VH: QIQLKESGPGLVQPSETLSLTCTVSGASVTSYSISWVRQPSGKGPEWMGRMYYNGDTLYNSVIKSRLSISRDTSKNQVFLKMNSLQTDDTGTYYCARDPILPPYFDYWGQGVMVTVSS
VL: DVQMTQSPSYLAASPGESVSISCKFSKSLSNYVAWYQQKPGEAYKLLTHSASTVQSGIPSRISGSGSGTDFTLTIRSLEPEEFGLYYCQQHYENPYTFGAGTKLELKR
Kd: 14.8 nM | koff: 0.000313 s⁻¹ | kon: 21200 M⁻¹ s⁻¹
